Measurements: publication PMC5072841, “Insights into HIV-1 proviral transcription from integrative structure and dynamics of the Tat:AFF4:P-TEFb:TAR complex” (eLife, 2016)

B1: AFF4 peptide 32-67 (peptide, UniProt Q9UHB7 32-67, looked up)
chain: Ac-SPLFAEPYKVTSKEDKLSSRIQSMLGNYDEMKDFIG-NH2
notes: human AFF4, residues 32-67; also called AFF4_(32-67); synthetic AFF4 peptide (32-67); source: synthetic peptide (University of Utah DNA/Peptide Facility)

Key:
[1] = test system: HIV-1 Tat;Cyclin T1 (CycT1, P-TEFb subunit);CDK9 (P-TEFb subunit);AFF4 2-73 WT (HIV-1;human;human;human); experiment: EMSA; conditions: EMSA: 100 pM 32P-TAR, 0.009-190 nM Tat:P-TEFb, 5-fold molar excess AFF4 over P-TEFb; buffer and temperature as in Schulze-Gahmen 2014 (not given). SHAPE: RNA …
[2] = test system: HIV-1 Tat;Cyclin T1 (CycT1, P-TEFb subunit);CDK9 (P-TEFb subunit);AFF4 2-73 E61A (HIV-1;human;human;human); experiment: EMSA; conditions: EMSA: 100 pM 32P-TAR, 0.009-190 nM Tat:P-TEFb, 5-fold molar excess AFF4 over P-TEFb; buffer and temperature as in Schulze-Gahmen 2014 (not given). SHAPE: RNA …
[3] = test system: HIV-1 Tat;Cyclin T1 (CycT1, P-TEFb subunit);CDK9 (P-TEFb subunit) (HIV-1;human;human); experiment: EMSA; conditions: EMSA: 100 pM 32P-TAR, 0.009-190 nM Tat:P-TEFb, 5-fold molar excess AFF4 over P-TEFb; buffer and temperature as in Schulze-Gahmen 2014 (not given). SHAPE: RNA …
[4] = test system: HIV-1 Tat;Cyclin T1 (CycT1, P-TEFb subunit);CDK9 (P-TEFb subunit);AFF4 2-73 K63A (HIV-1;human;human;human); experiment: EMSA; conditions: EMSA: 100 pM 32P-TAR, 0.009-190 nM Tat:P-TEFb, 5-fold molar excess AFF4 over P-TEFb; buffer and temperature as in Schulze-Gahmen 2014 (not given). SHAPE: RNA …
[5] = test system: HIV-1 Tat;Cyclin T1 (CycT1, P-TEFb subunit);CDK9 (P-TEFb subunit);AFF4 2-73 WT (HIV-1;human;human;human); experiment: EMSA; conditions: EMSA: 100 pM 32P-TAR, 0.009-190 nM Tat:P-TEFb, 5-fold molar excess AFF4 over P-TEFb; buffer and temperature as in Schulze-Gahmen 2014 (not given). SHAPE: RNA …; remark: listed apart in the source
human cyclin T1 1-264 = biological target: T1, human cyclin T1 1-264 (human, UniProt O60563 1-264); experiment: crystal structure; Tat_(1-57):AFF4_(32-67):P-TEFb combined with TAR21 RNA (nucleotides 21-41) at 1:1.3; sitting drops at 18°C; 5.9 Å; molecular replacement with PDB 4OGR; conditions: both partners purified
T1 construct: human cyclin T1, residues 1-264; also called CycT1; CycT; source: High 5 insect cells, recombinant baculovirus, co-expressed with CDK9 and Tat, purified
T1 sequence (O60563 1-264): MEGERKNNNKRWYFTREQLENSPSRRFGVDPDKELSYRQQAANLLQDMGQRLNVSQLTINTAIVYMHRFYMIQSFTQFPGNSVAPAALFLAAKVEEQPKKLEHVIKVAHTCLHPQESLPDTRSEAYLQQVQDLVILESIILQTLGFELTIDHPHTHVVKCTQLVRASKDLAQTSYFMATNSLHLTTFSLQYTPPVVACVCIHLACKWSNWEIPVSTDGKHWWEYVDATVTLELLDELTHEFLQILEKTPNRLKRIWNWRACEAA

Row | Molecule | Kd [1] [nM] | binding signal (fold reduction in affinity vs WT AFF4) [2] | Kd [3] [nM] | binding signal (fold reduction in affinity vs WT AFF4) [4] | Kd [5] [nM] | binding result (human cyclin T1 1-264)
1 | HIV-1 TAR 18-44 WT | 0.26 | 3 | 19 | 2 | 0.2 | –
2 | B1 | – | – | – | – | – | binds
